We go through 2 molecules from publication PMC5356885 (Oncotarget, 2016).

The target in this test is T1, recombinant CaM for NMR (pETM11-CaM, tag cleaved) (UniProt P62149 1-149).
T1 construct: also called ^14N-CaM; ^15N-CaM
Kind of test: NMR titration. The following applies: both partners purified.

B1: histidine-tagged recombinant v-Myc bHLH-LZ fragment for NMR (131-amino acid construct, S314-A416) (domain or fragment)
chain: SNNRKCSSPRTLDSEENDKRRTHNVLERQRRNELKLRFFALRDQIPEVANNEKAPKVVILKKATEYVLSLQSDEHKLIAEKEQLRRRREQLKHNLEQLRNSRA
Consider B1, for which the binding result is given as “binds”.

B2: tag-free Myc (v-Myc bHLH-LZ fragment without the histidine tag) (domain or fragment)
chain: SNNRKCSSPRTLDSEENDKRRTHNVLERQRRNELKLRFFALRDQIPEVANNEKAPKVVILKKATEYVLSLQSDEHKLIAEKEQLRRRREQLKHNLEQLRNSRA
modifications: ^15N-labelled
With B2, the binding result is on record as “binds”.
